Laboratory results from article PMC6768651, “A ubiquitin-like domain controls protein kinase D dimerization and activation by trans-autophosphorylation” (The Journal of Biological Chemistry, 2019).
Changes are numbered by the printed parent chain. Numbers in names are those of the source.

B1: DKF-1 ULD (DKF-1^1–94) [C. elegans] / Atto488-labeled DKF-1 ULD^R42C [modified: Atto488 (maleimide-conjugated) on cysteine 42; Atto488 (maleimide-conjugated) on cysteine 42] [C. elegans] (parent complex)
chain 1: MDGSQGSTDYGDHVVLRYGGTREMVPLIRHEQMLDMLMERARQIVQGFGNLDTRNMYLFRHEYNSPTLLYPITSASQITSGSILEIILVDRTEA
chain 2: B1 chain 1 with R42C

Variants of: B1
Assay: fluorescence anisotropy; highest titration point: ULD F59E about 27 µM; parent value is the highest ULD WT point, about 20 µM; parent: 0.024; read off a plot

Variant	response
chain 1 F59E	~0.003
